In data set [1] the test system is ZFP 45643 (synthetic). Description: cell_activity. As to conditions: AAV9 in mouse striatum, 5 weeks, qRT-PCR; 70% at 12 weeks.
For data set [2], the system named is ZFP 46025 (synthetic). Nature of the data set: cell_activity. The conditions noted are these: AAV9 in mouse striatum, 5 weeks, qRT-PCR. (In qPCR the cycle at which signal appears reflects the starting amount.)

In the case of “mutant Htt allele expanded CAG repeat (Q50, 48 CAGs)”, the activity in data set [1] was found to be 79 % repression; in data set [2], 74 % repression.

Values taken from patent US20170096460.
